Like-named read-outs stand apart in the source and are kept apart here. Blank lines part the entries; values can stand above or below the binder they belong to.
Experiments:
[1] = molecular target: T1, Tn-glycosylated LAMP1 on COSMC knock-out cells (human, UniProt P11279 29-417, Truncated O-glycans (Tn, GalNAc alpha1-O-Ser/Thr), because the COSMC chaperone is knocked out); experiment: cell-based or functional assay
T1 sequence (looked up): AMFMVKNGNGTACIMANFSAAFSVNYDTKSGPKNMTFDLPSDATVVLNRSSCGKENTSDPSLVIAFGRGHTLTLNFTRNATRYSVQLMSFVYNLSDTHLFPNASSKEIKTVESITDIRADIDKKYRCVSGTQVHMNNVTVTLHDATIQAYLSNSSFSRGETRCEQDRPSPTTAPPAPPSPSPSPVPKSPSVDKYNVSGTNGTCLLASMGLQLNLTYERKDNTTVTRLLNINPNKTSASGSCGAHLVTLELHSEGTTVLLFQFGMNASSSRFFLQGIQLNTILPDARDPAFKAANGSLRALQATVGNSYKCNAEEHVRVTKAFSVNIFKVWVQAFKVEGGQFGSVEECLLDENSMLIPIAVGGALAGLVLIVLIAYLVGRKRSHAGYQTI

[2] = molecular target: T1, Tn-glycosylated LAMP1 on COSMC …; experiment: cell-based or functional assay; remark: listed apart in the source
[3] = molecular target: T2, LAMP1 without Tn glycans on wild type cells (human, UniProt P11279 29-417, No Tn antigen (the wild type cells are Tn-negative)); experiment: cell-based or functional assay
T2 sequence (looked up): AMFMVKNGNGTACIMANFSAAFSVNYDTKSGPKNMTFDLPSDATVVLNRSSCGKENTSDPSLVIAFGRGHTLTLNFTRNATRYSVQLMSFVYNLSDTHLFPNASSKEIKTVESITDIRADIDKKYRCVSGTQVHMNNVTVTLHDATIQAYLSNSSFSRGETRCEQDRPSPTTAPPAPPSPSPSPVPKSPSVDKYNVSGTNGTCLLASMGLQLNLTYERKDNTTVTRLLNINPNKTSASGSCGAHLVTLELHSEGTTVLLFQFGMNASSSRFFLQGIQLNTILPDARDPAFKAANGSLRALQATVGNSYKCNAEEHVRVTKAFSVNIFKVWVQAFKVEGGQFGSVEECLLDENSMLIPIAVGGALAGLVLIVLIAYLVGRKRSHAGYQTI

[4] = molecular target: T1, Tn-glycosylated LAMP1 on COSMC …; experiment: cell-based or functional assay; remark: listed apart in the source
[5] = molecular target: T2, LAMP1 without Tn glycans on wild type …; experiment: cell-based or functional assay; remark: listed apart in the source
[6] = molecular target: T3, LAMP1-Tn peptide Biotin-CEQDRPSPTTAPPAPPSPSP (human, N-terminal biotin; O-linked GalNAc on the serine at position 7 and the threonines at positions 9 and 10); experiment: BLI (Octet), LAMP1-GP on biosensor
T3 construct: Synthetic 20-mer glycopeptide made by FMOC synthesis; also called LAMP1 glycopeptide; glycosylated LAMP1 peptide
T3 peptide: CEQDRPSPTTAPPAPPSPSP

[7] = molecular target: T3, LAMP1-Tn peptide …; experiment: ELISA on plate-coated LAMP1-GP
Protocol: 96-well Corning high bind ELISA microplates plates were coated with LAMP1 peptides titrated in 0.2 M bicarbonate buffer, pH 9.4 overnight at 4° C. in concentrations ranging from 0.08 μg/ml to 10 μg/ml. BSA was used as a control/measure of background. The plates were then blocked with SuperBlock™ (Thermo Fisher) for 1 hr at room temperature. After plate washing, the humanized variants of 13C3 were incubated on the ELISA plate for 1 hour. All tested variants were expressed and purified using conventional methods. Briefly, Expi-293 cells were transiently transfected with heavy and light chain constructs, antibodies were secreted into supernatant and purified using Protein A agarose beads. The plates were then washed, and then incubated with secondary antibody (1/3000 Goat Anti-mouse IgG (H+L) HRP (Abcam 62-6520)) for 1 hour. The plate was then washed and color was developed with 1-Step™ Ultra TMB (Thermo Fisher) for 2 minutes. Color development was then stopped with 2 N Sulfuric Acid. Absorbance at 450 nm was then measured.

B1: 13C3-CART (other)
chain: DVVMTQTPLSLPVSLGDQASISCRSSQSLVHSNGNTYLHWYLQKPGQSPKLLINKVSNRFSGVPDRFSGSGSGTDFTLKISRVEAEDLGVYFCSQSTHVPRTFGGGTKLEIKGGGGSGGGGSGGGGSEVKLEDSGGGLVQPGGSMKLSCAASGFTFSDAWMDWVRHSPEKGLEWVAELRSKAFNHATYYAESVKGRFTISRDDSKSTVYLQMNSLRAEDTGIYYCTPNWDEGFAYWGQGTLVTVSATTTPAPRPPTPAPTIASQPLSLRPEACRPAAGGAVHTRGLDFACDFWVLVVVGGVLACYSLLVTVAFIIFWVRSKRSRLLHSDYMNMTPRRPGPTRKHYQPYAPPRDFAAYRSRVKFSRSADAPAYQQGQNQLYNELNLGRREEYDVLDKRRGRDPEMGGKPRRKNPQEGLYNELQKDKMAEAYSEIGMKGERRRGKGHDGLYQGLSTATKDTYDALHMQALPPR
Time to kill 50% of cells (KT50), HaCAT COSMC-KO target cells, T cell ratio 10:1 [1]: 7.3 h

B2: 13G2-ADC (GGFG-DX8951) (other)
VH: EVRLEESGGGLVQPGGSMKLSCVASGFTFSDAWMDWVRQSPERGLEWVAELRSKTFNHATYYAESVRGRFTISRDDSKSTVYLQMNSLRAEDTGIYYCSPNWDEGFAYWGQGTLVTVSA
VL: DVVMTQIPLSLCVSLGDQASISCRSSQSLVHNNGNTYLHWYLQKPGQSPKLLINKVSKRFTGVPDRFSGSGSGTDFTLKISRVEAEDLGVYFCSQSTHVPRTFGGGTKLEIK
modifications: MC-GGFG-DX8951 covalently attached to the antibody (maleimide); site not stated; DAR ~5.6
IC50 for cell death, T47D COSMC-KO cells [2]: 5.6 nM
IC50 for cell death, T47D cells [3]: 4.4 nM

B3: 13C3-ADC (GGFG-DX8951) (other)
VH: EVKLEDSGGGLVQPGGSMKLSCAASGFTFSDAWMDWVRHSPEKGLEWVAELRSKAFNHATYYAESVKGRFTISRDDSKSTVYLQMNSLRAEDTGIYYCTPNWDEGFAYWGQGTLVTVSA
VL: DVVMTQTPLSLPVSLGDQASISCRSSQSLVHSNGNTYLHWYLQKPGQSPKLLINKVSNRFSGVPDRFSGSGSGTDFTLKISRVEAEDLGVYFCSQSTHVPRTFGGGTKLEIK
modifications: MC-GGFG-DX8951 covalently attached to the antibody (maleimide); site not stated; DAR ~3.1
IC50 for cell death, T47D COSMC-KO cells [2]: 5.6 nM
IC50 for cell death, T47D cells [3]: 205 nM

B4: GO-13C3 mouse (vc-PAB-MMAE ADC) (other)
VH: EVKLEDSGGGLVQPGGSMKLSCAASGFTFSDAWMDWVRHSPEKGLEWVAELRSKAFNHATYYAESVKGRFTISRDDSKSTVYLQMNSLRAEDTGIYYCTPNWDEGFAYWGQGTLVTVSA
VL: DVVMTQTPLSLPVSLGDQASISCRSSQSLVHSNGNTYLHWYLQKPGQSPKLLINKVSNRFSGVPDRFSGSGSGTDFTLKISRVEAEDLGVYFCSQSTHVPRTFGGGTKLEIK
modifications: Cleavable MMAE with maleimide (vc-PAB-MMAE) covalently linked; site not stated; DAR ~4
IC50 for cell death, T47D COSMC-KO cells [4]: 4.5 nM
IC50 for cell death, T47D cells [5]: > 100000 nM

B5: 3C7-ADC (GGFG-DX8951) (other)
VH: EVKLEESGGGLVQPGGSMKVSCGASGFTFSDAWMDWVRQSPEKGLEWVAEMRSKAFNHAIYYAESVKGRFTISRDDSKSRVYLQMNLLRPEDTGIYYCTPNWDEGFAYWGQGTLVTVSA
VL: DVMLTQTPLSLPVSLGDQASISCRSSQSLVHSNGNTYLHWYLQKPGQSPKLLINKVSNRFFGVPDRFSGSGSGTDFTLKISRVEAEDLGVYFCSQSTHVPRTFGGGTKLEIK
modifications: MC-GGFG-DX8951 covalently attached to the antibody (maleimide); site not stated; the DAR could not be calculated
IC50 for cell death, T47D COSMC-KO cells [2]: 4.5 nM
IC50 for cell death, T47D cells [3]: 504 nM

B6: 13G2-CART (other)
chain: DVVMTQIPLSLCVSLGDQASISCRSSQSLVHNNGNTYLHWYLQKPGQSPKLLINKVSKRFTGVPDRFSGSGSGTDFTLKISRVEAEDLGVYFCSQSTHVPRTFGGGTKLEIKGGGGSGGGGSGGGGSEVRLEESGGGLVQPGGSMKLSCVASGFTFSDAWMDWVRQSPERGLEWVAELRSKTFNHATYYAESVRGRFTISRDDSKSTVYLQMNSLRAEDTGIYYCSPNWDEGFAYWGQGTLVTVSATTTPAPRPPTPAPTIASQPLSLRPEACRPAAGGAVHTRGLDFACDFWVLVVVGGVLACYSLLVTVAFIIFWVRSKRSRLLHSDYMNMTPRRPGPTRKHYQPYAPPRDFAAYRSRVKFSRSADAPAYQQGQNQLYNELNLGRREEYDVLDKRRGRDPEMGGKPRRKNPQEGLYNELQKDKMAEAYSEIGMKGERRRGKGHDGLYQGLSTATKDTYDALHMQALPPR
Time to kill 50% of cells (KT50), HaCAT COSMC-KO target cells, T cell ratio 10:1 [1]: 8.75 h

B7: GO-13C3-Human-v1 (vc-PAB-MMAE ADC) (other)
VH: EVQLVESGGGLVQPGGSLRLSCAASGFTFSDAWMDWVRHAPGKGLEWVAELRSKAFNHATYYAESVKGRFTISRDDSKNSVYLQMNSLKTEDTAVYYCTPNWDEGFAYWGQGTLVTVSS
VL: DVVMTQSPLSLPVTLGQPASISCRSSQSLVHSNGNTYLHWYQQRPGQSPRLLINKVSNRFSGVPDRFSGSGSGTDFTLKISRVEAEDVGVYFCSQSTHVPRTFGGGTKVEIK
modifications: Cleavable MMAE with maleimide (vc-PAB-MMAE) covalently linked; site not stated; DAR ~4
IC50 for cell death, T47D COSMC-KO cells [4]: 5.03 nM
IC50 for cell death, T47D cells [5]: > 100000 nM

B8: GO-13C3-Human-v2 (vc-PAB-MMAE ADC) (other)
VH: EVQLLESGGGLVQPGGSLRLSCAASGFTFSDAWMDWVRQAPGKGLEWVSELRSKAFNHATYYAESVKGRFTISRDDSKNTLYLQMNSLRAEDTAVYYCTPNWDEGFAYWGQGTLVTVSS
VL: DVVMTQSPLSLPVTLGQPASISCRSSQSLVHSNGNTYLHWYQQRPGQSPRLLINKVSNRFSGVPDRFSGSGSGTDFTLKISRVEAEDVGVYFCSQSTHVPRTFGGGTKVEIK
modifications: Cleavable MMAE with maleimide (vc-PAB-MMAE) covalently linked; site not stated; DAR ~4
IC50 for cell death, T47D COSMC-KO cells [4]: 5.4 nM
IC50 for cell death, T47D cells [5]: > 100000 nM

Kd [6]: 0.85 nM
EC50 [7]: 0.0191 µg/mL
B9: 13C3-HV-23-B/13C3 KV2-A (antibody, V domains shown)
VH: EVQLLESGGGLVQPGGSLRLSCAASGFTFSDAWMDWVRQAPGKGLEWVSELRSKAFNHATYYAESVKGRFTISRDDSKNTLYLQMNSLRAEDTAVYYCTPNWDEGFAYWGQGTLVTVSS
VL: DVVMTQSPLSLPVTLGQPASISCRSSQSLVHSNGNTYLHWYQQRPGQSPRLLINKVSNRFSGVPDRFSGSGSGTDFTLKISRVEAEDVGVYFCSQSTHVPRTFGGGTKVEIK
notes: Humanized 13C3; also called HV23B/KV2A; humanized 13C3 candidate 3

Kd [6]: 23.5 nM
EC50 [7]: 0.0155 µg/mL
B10: 13C3-HV-23-C/13C3 KV2-A (antibody, V domains shown)
VH: EVQLLESGGGLVQPGGSLRLSCAASGFTFSDAWMDWVRQAPGKGLEWVSEIRSSAFNHATYYAESVKGRFTISRDDSKNTLYLQMNSLRAEDTAVYYCTPNWDEGFAYWGQGTLVTVSS
VL: DVVMTQSPLSLPVTLGQPASISCRSSQSLVHSNGNTYLHWYQQRPGQSPRLLINKVSNRFSGVPDRFSGSGSGTDFTLKISRVEAEDVGVYFCSQSTHVPRTFGGGTKVEIK
notes: Humanized 13C3; also called humanized 13C3 candidate 5

Kd [6]: 8.2 nM
EC50 [7]: 0.0257 µg/mL
B11: 13C3-HV-72-B/13C3 KV2-A (antibody, V domains shown)
VH: EVQLVESGGGLVQPGGSLRLSCAASGFTFSDAWMDWVRQAPGKGLEWVGELRSKAFNHATYYAESVKGRFTISRDDSKNSLYLQMNSLKTEDTAVYYCTPNWDEGFAYWGQGTLVTVSS
VL: DVVMTQSPLSLPVTLGQPASISCRSSQSLVHSNGNTYLHWYQQRPGQSPRLLINKVSNRFSGVPDRFSGSGSGTDFTLKISRVEAEDVGVYFCSQSTHVPRTFGGGTKVEIK
notes: Humanized 13C3; also called humanized 13C3 candidate 4

Kd [6]: 3.1 nM
EC50 [7]: 0.0262 µg/mL
B12: 13C3-HV-72-A/13C3 KV2-A (antibody, V domains shown)
VH: EVQLVESGGGLVQPGGSLRLSCAASGFTFSDAWMDWVRHAPGKGLEWVAELRSKAFNHATYYAESVKGRFTISRDDSKNSVYLQMNSLKTEDTAVYYCTPNWDEGFAYWGQGTLVTVSS
VL: DVVMTQSPLSLPVTLGQPASISCRSSQSLVHSNGNTYLHWYQQRPGQSPRLLINKVSNRFSGVPDRFSGSGSGTDFTLKISRVEAEDVGVYFCSQSTHVPRTFGGGTKVEIK
notes: Humanized 13C3; also called HV-72A/KV2A; humanized 13C3 candidate 2

— US20250066498A1 (GO THERAPEUTICS, published 2025)
